According to US20200339700A1 (Bristol-Myers Squibb, published 2020):
Substitutions are numbered along the chain they refer to.

B1: 12D6-24 variant L1H2 (antibody, human IgG1, V domains shown)
VH: QVQLVQSGAEVKKPGSSVKVSCKASGYTFTGYNMNWVRQAPGQGLEWMGNIDPYYGNTNYNQKFKGKTTLTADKSTSTAYMELSSLRSDDTAVYYCARLGLQLYALDYWGQGTLVTVSS
VL: DIVMTQTPLSLPVTPGEPASISCRSSQSLVHSNANTYLHWYLQKPGQSPQLLIYKLTNRFFGVPDRFSGSGSGTDFTLKISRVEAEDVGVYYCSQSIHVPWTFGGGTKVEIK
B2: 12D6-24 variant L2H1 (antibody, human IgG1, V domains shown)
VH: B1 VH with S16A, K67R, T68V, L70M, A72T, K74T, S84R, L114T
VL: EIVMTQSPATLSVSPGERATLSCRASQSVSSNLAWYQQKPGQAPRLLIYKLTNRFFGIPARFSGSGSGTDFTLTISRVEAEDFAVYYCQQSIHVPWTFGQGTKVEIK
B3: 12D6-24 variant L2H2 (antibody, human IgG1, V domains shown)
VH: B1 VH
VL: B2 VL
B4: 12D6-24 variant L3H1 (antibody, human IgG1, V domains shown)
VH: B1 VH with S16A, K67R, T68V, L70M, A72T, K74T, S84R, L114T
VL: EIVMTQSPATLSVSPGERATLSCRSSQSLVHSNANTYQQKPGQAPRLLIYKLTNRFFGIPDRFSGSGSGTDFTLTISRVEAEDFAVYYCQQSIHVPWTFGQGTKVEIK
B5: 12D6-24 variant L5H1 (antibody, human IgG1, V domains shown)
VH: B1 VH with S16A, K67R, T68V, L70M, A72T, K74T, S84R, L114T
VL: EIVMTQSPATLSVSPGERATLSCRASQSVSSNLAWYLHWYLQKPGQAPRLLIYKLTNRFFGIPARFSGSGSGTDFTLTISRVEAEDFAVYYCQQSIHVPWTFGQGTKVEIK
B6: 12D6-24 variant L5H2 (antibody, human IgG1, V domains shown)
VH: B1 VH
VL: B5 VL
B7: 12D6-24 variant L1H4 (antibody, human IgG1, V domains shown)
VH: B1 VH with S16A, K67R, K74T
VL: B1 VL
B8: 12D6-24-L4H4 (antibody, human IgG1, V domains shown)
VH: B1 VH with S16A, K67R, K74T
VL: DIVLTQSPDSLAVSLGERATINCRASQSLVHSNANTYLHWYQQKPGQPPKLLIYKLTNRFFGVPDRFSGSGSGTDFTLTISSLQAEDVAVYYCQQSIHVPWTFGQGTKLEIK
B9: 12D6-24 variant L4H2 (antibody, human IgG1, V domains shown)
VH: B1 VH
VL: B8 VL
B10: 12D6-24-L4H1 (antibody, human IgG1, V domains shown)
VH: B1 VH with S16A, K67R, T68V, L70M, A72T, K74T, S84R, L114T
VL: B8 VL
B11: antibody 12D6-24 (antibody, human IgG1, kappa, V domains shown)
VH: B1 VH with S16A, K67R, T68V, L70M, A72T, K74T, S84R, L114T
VL: DIVMTQTPLSLPVTPGEPASISCRSSQSLVHSNANTYLHWYLQKPGQSPQLLIYKLTNRFFGVPDRFSGSGSGTDFTLKISRVEAEDVGVYYCSQSIHVPWTFGGGTKVEIKR
notes: also called mAb 12D6-24; unmodified 12D6-24

target: T1, human CD40 (human, UniProt P25942 21-193); experiment: ELISA
T1 construct: also called huCD40; TNFRSF5
T1 sequence (P25942 21-193 limits assumed): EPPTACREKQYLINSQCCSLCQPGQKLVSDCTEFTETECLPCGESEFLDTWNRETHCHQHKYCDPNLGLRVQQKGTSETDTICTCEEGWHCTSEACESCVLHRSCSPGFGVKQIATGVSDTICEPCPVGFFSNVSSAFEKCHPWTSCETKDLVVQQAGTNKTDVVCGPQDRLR

| Binder | Kd |
| --- | --- |
| B1 | 0.6 nM |
| B2 | > 100 nM |
| B3 | > 100 nM |
| B4 | > 100 nM |
| B5 | 1.6 nM |
| B6 | 1.6 nM |

target: T1, human CD40; experiment: ELISA; remark: another data set of the same source
Description: (§1) An ELISA was performed to confirm that the improved antibodies retained affinity for CD40.

| Binder | Kd |
| --- | --- |
| B7 | 230 nM |
| B8 | 240 nM |

target: T1, human CD40; experiment: ELISA; further experiments (Table 6), 4 day titer
Description: as §1

| Binder | Kd |
| --- | --- |
| B9 | 0.25 nM |
| B10 | 0.25 nM |

target: T1, human CD40; experiment: ELISA; first screen of the VL/VH pairs (Table 4), head in nM

| Binder | Kd |
| --- | --- |
| B11 | 0.2 nM |
| B9 | 0.2 nM |
| B10 | 0.2 nM |

target: T1, human CD40; experiment: antigen binding (method not named; ELISA in the rest of Example 2)

| Binder | Kapp |
| --- | --- |
| B7 | 0.22 nM |
| B8 | 0.24 nM |
| B9 | 0.25 nM |
| B10 | 0.25 nM |

target: T1, human CD40; experiment: ELISA; further experiments (Table 6 ELISA), reference value in the text
Description: as §1

| Binder | Kd |
| --- | --- |
| B11 | 0.24 nM |
